Source: publication PMC3077374

Key:
Experiment in all cases: SPR; Biacore 3000; hIgG, hIgM or hIgA amine-coupled to CM-5 chips (10 mM sodium acetate, pH 5.0, 4.5 or 4.0); LD5 or SpA as analyte in serial 1:2 dilutions from 1.25 and 0.8 uM; flow 40 ul/min; NaCl/HEPES with 0.005% surfactant P20; regeneration 100 mM alanine-HCl pH 2.5
human IgM (human) = target: human IgM (human)
human IgA (human) = target: human IgA (human)
human IgG (human) = target: human IgG (human)

## staphylococcal protein A (SpA) (from UniProt P02976 37-485) (natural protein)
Human IgM (human)
  Kd: 7.15 nM
  koff: 0.000817 s⁻¹
  kon: 115000 M⁻¹ s⁻¹
Human IgA (human)
  Kd: 7.03 nM
  koff: 0.00292 s⁻¹
  kon: 416000 M⁻¹ s⁻¹
Human IgG (human)
  Ka: 3.45e+09 M⁻¹
  Kd: 0.29 nM
  koff: 4.4e-05 s⁻¹
  kon: 154000 M⁻¹ s⁻¹
